From the DeepSol protein solubility set

test: soluble on expression in E. coli; label from the status in PepcDB or PDB records

Sequence | soluble on expression in E. coli
MRYSLKQLAVFDAVADCGSVSQAADKLALTQSATSMSLAQLEKMLGRPLFERQGKQMALTHWGMWLRPKAKRLLQDAQQIEMGFYDQHLLSGEIRLGASQTPAEHLVPDLISIIDSDFPEIRISLGVKSTKGVIEGVLDYKYDLGIIEGRCDDNRIYQEVWCRDHLTIVASAHHPFAKRESVSLAQLEQAKWVLREQGAGTRNIFDSVIHPLIPDLDVWREYEHVPVLRTLVANGPYLTCLPYLDVERFIESGLLVALNVPELNMERTLSFIWRADMEENPLAECIKREGLRMMKGKPSIL | not soluble
MSNTVATMINKRNIMRNYIKIGVAGPVGAGKTALIEKLTREIASKYSVAVITNDIYTQEDAEFLTKNSLLPPERIMGVETGGCPHTAIREDASMNLEAVDEMVTRFPDVEIVFIESGGDNLSATFSPDLADVTIFVIDVAQGEKIPRKGGPGITRSDLLVINKTDLAPFVGADLSVMERDARRMRNGQPFIFTNLMKKENLDGVIGWIEKYALLKNVEEPASLVRLEHHHHHH | soluble
GAACNVLFINSVEMESLTGPQAISKAVAETLVADPTPTATIVHFKVSAQGITLTDNQRKLFFRRHYPLNTVTFCDLDPQERKWTKTDGSGPAKLFGFVARKQGSTTDNVCHLFAELDPDQPAAAIVNFVSRVML | soluble
MEGVRLGWRGLSREGRGGAWHAAERTRPCTQRVPPSSQKIALQLKATLENVTNLRPVGEDFRWYLKMKCGNCGEISEKWQYIRLMDSVALKGGRGSASMVQKCKLCARENSIDILSSTIKAYNAEDNEKFKTIVEFECRGLEPVDFQPQAGFAADGVESGTVFSDINLQEKDWTDYDEKAQESVGIFEVTHQFVKC | soluble
MSLGDLLTFATGHKYYGINFDEDERGWYYREWAPEAYEVYLTGDFNDWDRRSHPLTRNEFGVWQIFLPYDLYQKRFVHKSKIKVQIVGANGTHDRIPAYITRVVQDTETTDFSGQLWFPQKPFEWTDRDFNLRKIKNPIIYEAHVGMAQEKEGVGTYREFADKIVPRIRQMGYNSIQLMAVMEHPYYGSFGYHVSNFFAPSSRFGTPEDLKYLVDRAHKFGLAVIMDVVHSHAVKNLSEGLNEFDGSDHQYFHPGDRGYHTGWDSKLFDYGKLEVKRFLLSNLRYWLEEYHFDGFRFDGVTSMLYFDHGMKTFDSYDTYFKGGVDFDAVTYLQLANEVTHRYLKDSITIAEDVSGMPGLSRSIRDGGVGFDYRLAMGIPDFWIKYLKHLQDEQWNIYEMWSTLTNRRYKEKTIAYAESHDQAMVGDKTIAFWLMDKEMYFHMQVDDPNPVIDRGIAIHKLLRLFTFALGGEGYLNFMGNEFGHPEWIDFPREGNGWSYQYARRQWSLVDNPKLKYQYLGAFDEAMMRLVRKTRLLAAEPAQQLNMDDHNKVIIFERNNMIFVFNFSVSNSVFDYKFKSFAPGTFEIVLNSDDTRFGGHGRVDDTLEYHTNTEGQLSIYTPNRSVLVFQRKEASEGHHHHHH | not soluble
MNQKAVILDEQAIRRALTRIAHEMIERNKGMNNCILVGIKTRGIYLAKRLAERIEQIEGNPVTVGEIDITLYRDDLSKKTSNDEPLVKGADIPVDITDQKVILVDDVLYTGRTVRAGMDALVDVGRPSSIQLAVLVDRGHRELPIRADYIGKNIPTSKSEKVMVQLDEVDQNDLVAIYENE | soluble
MTVAQLIDIDAKKTKTSNEVYQTSTMLALLDGIYDGVISFEDLKKHGDFGIGTFDQLDGEMIAFDNEFYHLRSDGSAEKVEPEETTPFATVTFFEKEMSYTVERPMNREEVEALLHELMPSKNLFYGIRMDGTFREVRTRTVPRQEKPYTPLVEVTKSQPIFSFENTEGTLAGFWTPDYAQGIGVAGFHLHYIDDERSGGGHVFDYVIENCTIQICQKAHMHLALPETADFMAAALSRENLEDNIATAEGAE | not soluble
MAEPKYAIIINDIKRLISDGTFKPGEKIYSEDELKKKYNVSNTTVVRALHELVRAGILARYQGKGTYVSKSIINEEVIFNEYTTVPNGKFNRKTKIANEHTKVVAINEIQDARIAKNLQIPPENMIVHFQRIRLIDDVPWTVQNNYMAKANLINVDLTNFERFNSLSEVIKELYGINILHEAMKERIQVEFPVKDKNNFKLLEIDSELPLYHIERITYVPEGQPYEYIESYLRHNFYSIEIEKKKQ | not soluble
MGSDKIHHHHHHMSVCARPERPWDERDRERFMHRNKVVSREDWFQAHKAHLAREKELTRLRERVAAERRELPWLKVRKDYVFETEQGPKKLAELFANRSQLIVYHFVFAPGSTHHCESCAFVADHMDGANRHLRHHDVSLVTISRAPLVELLPYKQRMGWTFDWVSSYASDFNFDMQVSFTDRQIASGEAVYNFETPVLTSKDLPGTTVFYKGETGDIFLTFMSRARGSEQFIGAYQYLDIAPKGRDETGPYGTFMDWVRLHDEYGNRSQRDDVCP | not soluble
MSLKSSEQMRALFPDHPEACDNTLLLTEMIGSYDEVFKYVDRMPQFDVPEGETQESWLRKKLQEGLDEKFGPNPPKEVLERLETELSVIEPLGFASYFLVVSDICNAARSMGVPVGPGRGSAAGSLVAYLTGIIAINPLEHGLLFERFLNPERVNPPDIDLDFDDRQRDKVIDYVTHKYGAEYTSQVNTFGKIKAKAAVKDANRILGYPFALGDKITKAMPPDVMGKGVPLDKIFDSSHERYGEGQEFRQLVADNPDVAKVVETAKGLEGLIRGTGVHACAFILSSTPLLDLVPMHKRDKDGMIIAGFAYPQLEEMGLMKMDFLGLRNLGIMDHCIKIIKANRGIDVDLKNIALDDKTTYEMLARGDTLGVFQLDGTAMRSLLRLMGPTCFDDIVAVLALYRPGPMGANAHISYAQRKNNREPIIPIHPELKEDLDEILAPTYHLIVYQEQIMSIARKLAGYTLGGADLLRRAMGKEGHHHHHH | soluble
MSAPLFSVVVPAYNQHKFIDSCLTSLQRQTLTDFEVFVVDDCSTDDTGEQIAALIKGDDRFHVITHAHNRGVSAARNSGMAAAKGKYLCFVDGDDWVEPDFLATFLAAYRSAPDTQLVVCGHYGYLAVPSPAKTYNQKDLIANINFGTVGGFSWNKAFIRSIITTHHLKFNEDIDFLEDQLFAFRYANYVQSSEYVPDRTYHYRWRFRSNLAHIGIPFFTARRKMMKILKQENKQVLNEDWNNQ | not soluble
GLFQFLRIVMRPSDQLLGLDEKGTIRTIDETGKASPIPGMVIYRFNSPLTYFNAPYFKRRLLEHAEQNKDVSCVVVDAVSSFTHLDLSVMATLADIHEVLKKRGIRLVLAGRKRRLRQWCELTGISTSEGGILLRADMYLAIKLSGSYLSAVGEGIVPTVQKEPDLEQPPKPIPEVA | not soluble
MAHHHHHHMPTEAHGWAALSAKSKLEPFAFQRRDVGPDDVVIAIAYCGVCHSDVHQARDEWDGSTFPMVPGHEIVGHVTKVGSEVTKYKAGDRVGVGCMVDSCMKCRQCERGLEQYCVNGASFTYNSTQQDKKTPTFGGYSDHVVVREHFVVSIPDNLDLCAAAPLLCAGVTTFSPLRYWGVKKGTRVGVVGLGGLGHMAVKLANAMGAEVTVFTRSSNKVEEAENLGAHHVVNTNNEQEMNSIQGTLDVIVDTVGMSHDLRPYMMTLDIDGKLALVGMPEHAHPPLDPRRIIASRQCVGGSNIAGMPETQELLNFCGEHNITATVEKIGIEYINEAYERILASDVRYRFVIDMASLKKE | soluble
MGVLPKINIVARQFRKCSMAATSTSTSSSDNSVASTAFVQEHVRQMQNDIMVQLIPQDESGAVENLADLNVTSNLGRMTHYYFQQGGKMLRPTVSLLMGNACNSAANRSISEEYLAMLSTERSGIAAHLSVCQNQYKIGMIAEMIHTASLVHDDVIDEANTRRGSASVNAVWGNKMSVLVGDFILARATQILCSIGKPNIISVMASIIEDLVLGEFMQMSTTPTDATPVDRMKAYIEKTHRKTASLFASSCRSAAILADGSDLKLHEIAFEYGRNLGIAFQLADDLLDFIATADEMGKPVAADLKLGLATAPVLYACEQYPELNTMLLRKFKHDGDAEKAREIVVNSDGMDKTRRLIDSYSQKAVEMASSLPNRNESTEHLIKLAMSQSDRKF | not soluble
RLLLNGDGTPVGGAWNFDAENRKALPKGVAAPYPMRFSADAITRDVLTLVAERFASHYGSLDTFDYPVTQADAQALWEYFLDFGLAGFGDYQDAMATDEPFLFHARISAALNIGLLDLRQICSDVESAYWSGRVALNAAEGFIRQLIGWREYVRGVYWLKM | not soluble
MAKKLSKKGDIQRDHFALISSFPLNQTPETKSEKLQKNLLLHKYYQGHRERLRRRYLKSKGNAIEDYEYLELLLFRTIPRANTKPIAKSLIAHFGSLADVLGADIHRLQEVQGCGPATALDLKIISDVAGRLARAQLFKRDIFSSWDQVLAYCKAVMAHETREQFRVLFLDKKNGLLADEVQQTGTIDHTPVYPREVISRALQLSASGLILVHNHPSGDATPSKADVTMTYRLKDAANALGITVHDHLIIARNNYTSFKELKFI | not soluble
MAGAMIEARGLVKRFVSGRIRRRVVEALKGVSFSVYEGEIYSFLGPNGAGKTTTVRILSTLLDPDGGEARVAGFDVVKERWEVRKRIGVMLSVERGFYWKLTGRENLYYFGRIYGIPQGELKSRIKEVLDLVGLTDLGGADKPFEEMSLGMKARLGLARVLLKDPEVLILDEPTLGLDPASARTIRGVIRSLASEGRTIFITTHNMVEAEMISDRVGIIIGGRIAMEGTPDELKRRVFSSINLEFRVKASGHAAKKFFYDVKGEYGNRIVGGVTFSDGILTFRVSVNRDEPAEPIIDRITRLAYQYRFKILEIKALEPSLEDVFVAVSESGEARSGRVKGSIAQRLEHHHHHH | soluble
MFSVTLLVVSCGILAAAYPYSQQYGNYDQQYSQQSQYYPSSGQQGYRGGYQSNPGMQGGYQGNGQDSYQDFQGYQGYQRGQGGQRGYQGYQSNQRSQGSYPERYDSSMYSPVMDLTNYYGSQGTPQYYGYPSSASYQMTPYYQNQNQGYMQQQQYNTPSQSSWSPMYYGNGYQSQQSQQQQSSMGIRPYQSSWGQTQGTNTWGSPYQFTKVDAQVTDDDNVDGSGMDSSEQTSSPASTDDSQMTSNDD | not soluble
SNAMAWVVNKQSTQEELANRFRALVEANEILQIPGAHDAMAALVARNTGFLALYLSGAAYTASKGLPDLGIVTSTEVAERARDLVRATDLPVLVDIDTGFGGVLNVARTAVEMVEAKVAAVQIEDQQLPKKCGHLNGKKLVTTEELVQKIKAIKEVAPSLYIVARTDARGVEGLDEAIERANAYVKAGADAIFPEALQSEEEFRLFNSKVNAPLLANMTEFGKTPYYSAEEFANMGFQMVIYPVTSLRVAAKAYENVFTLIKETGSQKDALSNMQTRSELYETISYHDFEELDTGIAKTVLSEDQ | soluble
MKVIIFGGSGFLGQQIAKILVQRQHQVISVSRHGKPATLSASWSHQVQWVCSDVTHDTNWQEQVQRADWVIDTVGILFENPRKKKTYQRLILTPVKKISSFLAQQKKPAKFLFISANTVPFPLRKYMDAKLAAEELIHQEVAEAVIFYPSLLVGQERTGTILFSKCIYFFKKIPFLKNLFIGYDPVPVAEMAQEIVHVLEGGNSIYTHRRTR | not soluble
MMDAKALWQRYQDWLYYHEGLGLYLDISRMRFDDSFVESLQSKFDKAFADMAALEKGAIANPDENRMVGHYWLRNPDLAPSPELTQEIVQTLEQIEAFADQVHTGAVHPPKESRFTDIISIGIGGSALGPQFVAEALSPDSPPLNIHFIDNTDPRGIDRVLSQINNLASTLVLVISKSGGTPEPRNGMIEVKKAYAAKNLDFSKYAVAVTGPDSNLDKVAKSEGWLARFSMYDWVGGRTSEMSAVGLVPAALQGIDIRAMLEGAKEMDDATRVADLKNNPAALLALAWYYSGKGKGGKDMVVLPYKDSLLLFSRYLQQLVMESLGKEKDLDGKIVYQGIAVYGNKGSTDQHAYVQQLREGVPNFFATLIEVLEDRQRKSPEIDPGVTSGDYLCGFLLGTRQALYENNRDSITVTIHQVNPRTVGALIALYERAVGLYASLVNINAYHQPGVEAGKKAAAVILDLQQKVMTVLQTERKALSISEIADKAGASEQIEAIYKILRHLHTNNRGVVLTGDLAKPGSLTVSLS | not soluble
